Common to all, as to details: EMSA with 0.75 ug rArcR-ACME and 61.2 pmol biotinylated probe; buffer, salt, pH and temperature not given in the material
In general terms: In EMSA bound probe runs differently from free probe, usually more slowly.

Data set [1] has as its target T1, rArcR-ACME (Staphylococcus aureus USA300_FPR3757) (UniProt E9KNS2).
T1 sequence: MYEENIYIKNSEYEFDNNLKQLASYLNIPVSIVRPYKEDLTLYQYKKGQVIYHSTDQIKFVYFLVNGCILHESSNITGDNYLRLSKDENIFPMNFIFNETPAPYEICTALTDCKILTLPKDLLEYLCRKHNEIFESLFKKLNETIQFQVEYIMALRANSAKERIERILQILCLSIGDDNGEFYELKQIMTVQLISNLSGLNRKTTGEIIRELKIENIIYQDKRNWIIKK
Briefly: competition.

For data set [2], the target named is T1, rArcR-ACME (Staphylococcus aureus USA300_FPR3757). Briefly: UV cross-linking.
Data set [3] shares this target. Briefly: EMSA.

Regarding “CAAATGATCACAGCATTTGGTACAGGAATCGGTGGCGACTTTGATCTAGCGAAAGCAAGATATCACAAAATCGTCATTATGACTGATGCCG (double strand) [gyrB fragment, non-specific competitor, 91 bp]”, in data set [1], the binding result was “no binding”.
As to “GTACAAAATACATATTCATACAAAATTTTGCATTGAATAAATCTATATATGTGAAAACCCTCCCTAAACAATTGTGAATTAAATCACACGATGTTTTTTGAAAGCGTTTTATAATGTGAATGT (double strand) [arcACME promoter fragment, unlabelled specific competitor]”, the binding result in data set [1] was “binds”.
For “GTACAAAATACATATTCATACAAAATTTTGCATTGAATAAATCTATATATGTGAAAACCCTCCCTAAACAATTGTGAATTAAATCACACGATGTTTTTTGAAAGCGTTTTATAATGTGAATGT (double strand) [arcACME promoter probe, 123 bp]”, the binding result in data set [2] and in data set [3] was “binds” throughout.

Source of the values: PMC5452487.
